Results: patent US20240158497A1 (published 2024)

How the values were obtained:
[1] = target: T1, human GP130 extracellular domain expressed with a C-terminal myc-myc-hexahistidine tag (human, UniProt P40189 23-619); assay: SPR 25C, mAb captured, hGP130-MMH injected
T1 construct: monomeric; also called hGP130-mmH; hGP130-MMH
Method: (§1) Equilibrium dissociation constant (KD) for different GP130 reagents binding to purified anti-GP130 monoclonal antibodies were determined using a real-time surface plasmon resonance based Biacore 4000 biosensor. All binding studies were performed in 10 mM HEPES, 150 mM NaCl, 3 mM EDTA, and 0.05% v/v Surfactant Tween-20, pH 7.4 (HBS-ET) running buffer at 25° C. and 37° C. The Biacore sensor surface was first derivatized by amine coupling with a monoclonal mouse anti-human Fc antibody (GE, #BR-1008-39) to capture anti-GP130 monoclonal antibodies. […] Reagents tagged with “mmH” are monomeric, whereas reagents tagged with “mFc” are dimeric. Thus, for example, “hGP130-mmH” is also referred to as “monomeric human GP130,” and “hGP130-mFc” is also referred to as “dimeric human GP130.”
(§2) The association rate (k a) and dissociation rate (kd) were determined by fitting the real-time binding sensorgrams to a 1:1 binding model with mass transport limitation using Scrubber 2.0c curve-fitting software. Binding dissociation equilibrium constant (KD) and dissociative half-life (t ½) were calculated from the kinetic rates as: […]

[2] = target: T2, human GP130 delta D1-D3 expressed with a C-terminal myc-myc hexahistidine tag (human, UniProt P40189 329-619); assay: Luminex, myc-captured antigen
T2 construct: CHO supernatant, captured on anti-myc microspheres; also called human GP130 delta D1-D3-MMH
T2 sequence (P40189 other isoform, or with tags, fused parts or gaps mutant limits assumed): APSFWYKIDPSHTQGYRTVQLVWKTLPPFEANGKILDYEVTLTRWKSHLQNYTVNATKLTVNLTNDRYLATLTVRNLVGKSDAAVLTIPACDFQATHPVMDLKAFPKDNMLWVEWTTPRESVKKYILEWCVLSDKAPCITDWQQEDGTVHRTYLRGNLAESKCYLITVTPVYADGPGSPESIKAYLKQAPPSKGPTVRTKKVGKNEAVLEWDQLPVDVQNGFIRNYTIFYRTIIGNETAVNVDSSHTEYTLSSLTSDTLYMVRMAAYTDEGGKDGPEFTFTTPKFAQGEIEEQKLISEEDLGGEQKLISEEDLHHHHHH
Method: (§3) Aliquots of microspheres with immobilized anti-myc monoclonal antibodies, prepared as described above, were added individually to 1 mL of the each of these protein supernatants and to 500 uL of purified GP130 protein. The microspheres were gently mixed, incubated for two hours at 25° C., washed twice with 1 mL of DBPS, centrifuged to remove the supernatant and finally resuspended in 1 mL of DPBS buffer. Forty eight μL of anti-myc IgG coupled microspheres from individual reactions with full length human GP130 and with each of the human GP130 domain proteins were withdrawn and mixed together in 3.6 mL of PBS+20 mg/mL BSA+0.05% sodium azide (blocking buffer).
(§4) From this mixed pool, 75 μL of microspheres were plated per well on a 96 well filter plate (Millipore, Cat. No: MSBVN1250) and mixed with 25 μL of individual anti-human GP130 monoclonal antibodies (0.5 or 5 μg/mL), incubated for two hours at 25° C. and then washed twice with 200 μL of DPBS with 0.05% Tween 20 (washing buffer). To detect and quantify the amounts of bound anti-GP130 antibody levels to individual microspheres, either 100 μL of 2.5 μg/mL R-Phycoerythrin conjugated goat F(ab′)2 anti-human kappa (Southern Biotech, Cat #2063-09) in blocking buffer, was added and incubated for 30 minutes at 25° C. After 30 minutes, the samples were washed twice with 200 μL of washing buffer and resuspended in 150 μL of wash buffer. The Median Fluorescence intensity (MFI) of the microspheres was measured in a Luminex Analyzer.

[3] = target: T3, mouse GP130 extracellular domain expressed with a C-terminal myc-myc-hexahistidine tag (mouse, UniProt Q00560 23-617); assay: SPR
T3 construct: monomeric; also called mGP130-mmH; mGP130-MMH
T3 sequence (Q00560 other isoform, or with tags, fused parts or gaps): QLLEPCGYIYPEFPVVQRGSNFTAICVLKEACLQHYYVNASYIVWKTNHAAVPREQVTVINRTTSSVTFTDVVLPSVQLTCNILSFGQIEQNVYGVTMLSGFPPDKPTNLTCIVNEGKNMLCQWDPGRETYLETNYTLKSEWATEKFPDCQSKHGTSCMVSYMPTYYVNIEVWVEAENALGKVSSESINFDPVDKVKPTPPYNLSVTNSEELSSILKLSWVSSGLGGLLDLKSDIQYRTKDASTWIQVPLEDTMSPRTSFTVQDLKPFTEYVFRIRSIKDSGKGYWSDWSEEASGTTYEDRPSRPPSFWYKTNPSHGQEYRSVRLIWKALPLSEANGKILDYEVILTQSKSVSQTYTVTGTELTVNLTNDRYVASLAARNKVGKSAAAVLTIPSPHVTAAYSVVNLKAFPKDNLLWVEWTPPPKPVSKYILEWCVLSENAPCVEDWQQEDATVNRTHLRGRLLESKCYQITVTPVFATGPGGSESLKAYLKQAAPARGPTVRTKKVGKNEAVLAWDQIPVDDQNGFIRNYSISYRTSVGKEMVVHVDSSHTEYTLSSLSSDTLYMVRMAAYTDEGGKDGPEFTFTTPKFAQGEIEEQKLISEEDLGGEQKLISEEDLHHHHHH
Method: as §1, §2

[4] = target: T4, human GP130 delta D1 expressed with a C-terminal myc-myc hexahistidine tag (human, UniProt P40189 124-619); assay: Luminex, myc-captured antigen
T4 construct: CHO supernatant, captured on anti-myc microspheres; also called human GP130 delta D1-MMH
T4 sequence (P40189 other isoform, or with tags, fused parts or gaps mutant limits assumed): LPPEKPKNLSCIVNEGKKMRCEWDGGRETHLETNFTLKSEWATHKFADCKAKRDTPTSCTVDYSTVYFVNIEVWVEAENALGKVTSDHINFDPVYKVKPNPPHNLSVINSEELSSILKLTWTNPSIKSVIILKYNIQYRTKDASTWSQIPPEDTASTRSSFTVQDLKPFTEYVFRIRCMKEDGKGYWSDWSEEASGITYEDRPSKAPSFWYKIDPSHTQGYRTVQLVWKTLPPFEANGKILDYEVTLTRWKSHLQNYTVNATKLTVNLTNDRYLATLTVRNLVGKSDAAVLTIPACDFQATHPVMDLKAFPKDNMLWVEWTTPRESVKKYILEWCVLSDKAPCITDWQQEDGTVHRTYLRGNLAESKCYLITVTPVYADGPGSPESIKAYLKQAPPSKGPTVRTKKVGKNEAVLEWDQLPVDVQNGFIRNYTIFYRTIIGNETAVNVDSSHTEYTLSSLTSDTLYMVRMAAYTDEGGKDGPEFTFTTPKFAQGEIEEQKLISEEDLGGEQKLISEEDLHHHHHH
Method: as §3, §4

T1 sequence (P40189 other isoform, or with tags, fused parts or gaps): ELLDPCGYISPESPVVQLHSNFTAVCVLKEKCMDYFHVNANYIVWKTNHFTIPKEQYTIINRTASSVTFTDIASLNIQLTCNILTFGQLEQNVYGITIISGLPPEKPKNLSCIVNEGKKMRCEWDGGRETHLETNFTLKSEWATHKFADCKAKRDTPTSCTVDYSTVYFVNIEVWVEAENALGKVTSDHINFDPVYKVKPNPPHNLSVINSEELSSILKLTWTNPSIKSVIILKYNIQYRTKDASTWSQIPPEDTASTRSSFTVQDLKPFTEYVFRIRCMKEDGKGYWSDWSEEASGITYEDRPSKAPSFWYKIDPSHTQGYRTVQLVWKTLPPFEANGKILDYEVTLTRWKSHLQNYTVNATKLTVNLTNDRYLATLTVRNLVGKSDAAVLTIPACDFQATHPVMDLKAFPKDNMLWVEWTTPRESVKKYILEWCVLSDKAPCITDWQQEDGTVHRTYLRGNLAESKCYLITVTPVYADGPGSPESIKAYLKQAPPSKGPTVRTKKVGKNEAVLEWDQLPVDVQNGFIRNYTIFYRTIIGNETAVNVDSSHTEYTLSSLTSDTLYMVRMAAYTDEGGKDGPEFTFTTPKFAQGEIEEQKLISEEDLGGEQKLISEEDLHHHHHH

| Binder | 100 nM Ag Bound (RU) [1] | Kd [1] | koff [1] | kon [1] | t½ [1] | binding result [2] | binding result [3] | binding result [4] |
| --- | --- | --- | --- | --- | --- | --- | --- | --- |
| MAb16662 (antibody, V domains shown) VH: EVQLVESGGGLVQPGGSLRLSCTASGFTFSNYAIFWVRQAPGKGLEYVSGISNNGVTKYYADSVRDRFTISRDNSRNTVSIQMDSLRTEDMAVYYCARENWGSDDGFDIWGQGTMVTVSS VL: not shown | 22 RU | 123 nM | 0.029 s⁻¹ | 235000 M⁻¹ s⁻¹ | 0.4 min | no binding (tested: 0.5 or 5 µg/mL) | no binding (tested: 100 nM) |  |
| MAb16637 (antibody, V domains shown) VH: QVQLVQSGAEVKKPGASVKVSCKASGYTFTSLGISWVRQAPGQGLEWMGWISAYSGNRDYAQKFQGRVTMTTDTSTSTAYMELRSLRSDDTAVYYCARSLRFDYWGQGTLVTVSS VL: not shown | 91 RU | 15.5 nM | 0.0011 s⁻¹ | 71100 M⁻¹ s⁻¹ | 10 min | no binding (tested: 0.5 or 5 µg/mL) | no binding (tested: 100 nM) | no binding (tested: 0.5 or 5 µg/mL) |
| MAb16656 (antibody, V domains shown) VH: EVQLVESGGGLVQPGRSLRLSCAASGFTLDDFAMHWVRQAPGKGLEWVSGISWNSGNIGYADSVKGRFTISRDNARNSLYLQMNSLRAEDTALYYCTSGYYLYYAMDVWGQGTTVTVSS VL: not shown | 44 RU | 23 nM | 0.000825 s⁻¹ | 35900 M⁻¹ s⁻¹ | 14 min | no binding (tested: 0.5 or 5 µg/mL) | no binding (tested: 100 nM) | no binding (tested: 0.5 or 5 µg/mL) |
| MAb16636 (antibody, V domains shown) VH: QLQLQESGPGLVKPSETLSLICTVSGGSISSNNYYWGWIRQPPGKGLEWIGNLYGSGSTYYNPSLKSRVTISVDTSKNQFSLKLSFVTAADTAVYHCARWDTNGGAFDIWGQGTMVTVSS VL: not shown | 37 RU | 36.8 nM | 0.000993 s⁻¹ | 27000 M⁻¹ s⁻¹ | 12 min | no binding (tested: 0.5 or 5 µg/mL) | no binding (tested: 100 nM) |  |
| MAb16665 (antibody, V domains shown) VH: QVQLVESGGGVVQPGRSLRLACAASGFTFRSYGMHWVRQAPGKGLEWVAVIWYDGSNKYYTDSVKGRFTISRDNSKNTLYLQMNSLRAEDTAMYYCAIDKWATVTTYLFDYWGQGTLVTVSS VL: not shown | 20 RU | 411 nM | 0.0473 s⁻¹ | 115000 M⁻¹ s⁻¹ | 0.2 min | no binding (tested: 0.5 or 5 µg/mL) | no binding (tested: 100 nM) | no binding (tested: 0.5 or 5 µg/mL) |
| MAb16664 (antibody, V domains shown) VH: QVQLVQSGTEVKKPGSSVKVSCKASGGTFSTYPINWVRQAPGQGLEWMGGIIPIFGTASYAQKFQGRVAITTDESTSTAYMELNSLRSEDTAVYYCARERPNWGSNDYWGQGTLVTVSS VL: not shown | 14 RU | 2.35 nM | 0.00164 s⁻¹ | 698000 M⁻¹ s⁻¹ | 7 min | no binding (tested: 0.5 or 5 µg/mL) | no binding (tested: 100 nM) | no binding (tested: 0.5 or 5 µg/mL) |
| MAb16666 (antibody, V domains shown) VH: EVQLVESGGGLVQSGGSLRLSCAASGFTFSRYEMNWVRQAPGKGLEWVAYISNTGTTRDYSDSVKGRFTISRDNAKNSLYLQMSSLRVEDTAVYYCVREKFSGTSDWFDPWGQGTLVTVSS VL: not shown | 138 RU | 14.4 nM | 0.00456 s⁻¹ | 317000 M⁻¹ s⁻¹ | 3 min | no binding (tested: 0.5 or 5 µg/mL) | no binding (tested: 100 nM) |  |
| MAb16673 (antibody, V domains shown) VH: EVQLVQSGAEVKKPGESLKISCKGSGYSFTSYWIDWVRQMPGKGLEWMGIIYPDDSDTRYSPSFQGQVTMSVDKSISTAYLQWSSLKASDTAIYYCARHERGIVEAGTDYYYYYGMDVWGQGTTVTVSS VL: not shown | 58 RU | 65.5 nM | 0.0141 s⁻¹ | 215000 M⁻¹ s⁻¹ | 0.8 min | no binding (tested: 0.5 or 5 µg/mL) | no binding (tested: 100 nM) |  |
| MAb16682 (antibody, V domains shown) VH: EVQLVESGGGLVQPGGSLRLSCAASGFTFSTYWMNWVRQAPGKGLEWVANIKEDGSEKYYVDSVKGRFTISRDNAKNSLYLQMNSLRAEDTAVYYCAREGFGVVTYIWGQGTMVTVSS VL: not shown | 21 RU | 136 nM | 0.0164 s⁻¹ | 121000 M⁻¹ s⁻¹ | 0.7 min | no binding (tested: 0.5 or 5 µg/mL) | no binding (tested: 100 nM) |  |
| MAb16659 (antibody, V domains shown) VH: QVQLVQSGPEVKKPGSSVKVSCKASGGTIDRNEITWVRQAPGQGLEWMGVIIPILGEAHYERKFQGRLTITMDESTSTAYMELSNLRSEDTAVYYCARERAARGYLDYWGQGTLVTVSS VL: not shown | 77 RU | 0.663 nM | 0.000459 s⁻¹ | 693000 M⁻¹ s⁻¹ | 25 min | no binding (tested: 0.5 or 5 µg/mL) | no binding (tested: 100 nM) | no binding (tested: 0.5 or 5 µg/mL) |
| MAb16676 (antibody, V domains shown) VH: QVQLVQSGAEVMKPGASVKVSCRASGYTFSSYDINWVRQAPGQGLEWMGWISTATGNTNYPQKVQGRVTMTTDTSTNTAYMELRSLRSDDTAVYYCTREGNSKGWLDPWGQGTLVTVSS VL: not shown | 51 RU | 2.19 nM | 0.000631 s⁻¹ | 287000 M⁻¹ s⁻¹ | 18 min | no binding (tested: 0.5 or 5 µg/mL) | no binding (tested: 100 nM) | no binding (tested: 0.5 or 5 µg/mL) |
